Measured values: PMC10085991
pEC50: −log10 of the molar value.

Key:
[1] = target: β2 adrenergic receptor 148C-378C (min-C-β2AR with N148C and native C378) (human) (UniProt P07550); test: FRET or BRET; single-molecule FRET (TIRF) between labels at 148C and 378C of the receptor; receptor immobilised by N-terminal FLAG on biotinylated M1 Fab; Gs^GDP 3.16 nM to 10 μM in solution; 200 μM isoproterenol; 25 °C; 50 mM HEPES pH 7.5, 100 mM NaCl, 5 mM MgCl2, 5 mM CaCl2, 0.01% MNG, 0.001% CHS; apparent EC50 of low-FRET occupancy
[2] = target: β2 adrenergic receptor 148C-378C (min-C-β2AR with N148C and native C378) (human) (UniProt P07550); test: FRET or BRET; single-molecule FRET (TIRF), receptor immobilised by FLAG/M1 Fab; titration of Gs^GDP with 100 μM isoproterenol and 20 μM cmpd-15 (negative allosteric modulator); 25 °C
[3] = target: β2 adrenergic receptor 148C-378C (min-C-β2AR with N148C and native C378) (human) (UniProt P07550); test: FRET or BRET; single-molecule FRET (TIRF), receptor immobilised by FLAG/M1 Fab; titration of Gs^GDP with 100 μM isoproterenol and 20 μM cmpd-6 (positive allosteric modulator); 25 °C

- pEC50 [1]: 7.00
- high-FRET dwell time, plateau at high Gs concentration [1]: 2 s
- pEC50 [2]: 6.46
- pEC50 [3]: 7.59
Substance: Gs heterotrimer (human Gαs, rat Gβ1, bovine Gγ2) (from UniProt P63092 1-394; P54311 1-340; P63212 1-71) (complex)
